Assay results: patent US10590440B2, “Process for producing a fermentation product from a lignocellulose-containing material” (CysBio ApS, priority 2014, dated 2020)

Tested on: E. coli
Assay: Growth of E. coli with or without SULT1A1 in M9 with wheat straw biomass hydrolysate (Example 7, FIG. 9)
Format: cell-based, Escherichia coli
Conditions: 1 mM IPTG
Excerpt: Here, we examine pre-treated wheat straw biomass hydrolysate in growth medium for a biotechnological relevant organism, exemplified by E. coli. Specifically, we used strains carrying plasmids expressing SULT1A1 from rat (Rattus norvegicus) and SULT1E1 from chicken (Gallus gallus domesticus) (Example 1) cloned into the expression vector pETDuet-1, and cysDNCQ from E. coli cloned into expression vector pRSFDuet-1 (Example 2) as described previously.
Cells expressing no sulfotransferase or SULT1A1 from rat were grown in M9 media with 1 mM IPTG with or without inhibitors of growth. Biomass hydrolysate was prepared by mixing 100 g biomass hydrolysate with 200 g of water for 2 h at 37° C., followed by centrifugation and filtration through a 0.2 μL-filter.

B1: SULT1A1 Rattus norvegicus: aryl sulfotransferase SULT1A1 from Rattus norvegicus (SEQ ID NO: 1), native gene, heterologously expressed (protein, listed as Rattus norvegicus)
chain: MEFSRPPLVHVKGIPLIKYFAETIGPLQNFTAWPDDLLISTYPKSGTTWMSEILDMIYQGGKLEKCGRAPIYARVPFLEFKCPGVPSGLETLEETPAPRLLKTHLPLSLLPQSLLDQKVKVIYIARNAKDVVVSYYNFYNMAKLHPDPGTWDSFLENFMDGEVSYGSWYQHVKEWWELRHTHPVLYLFYEDIKENPKREIKKILEFLGRSLPEETVDSIVHHTSFKKMKENCMTNYTTIPTEIMDHNVSPFMRKGTTGDWKNTFTVAQNERFDAHYAKTMTDCDFKFRCEL
- growth rate versus strain without sulfotransferase (M9 with 8% or 12% biomass hydrolysate): significantly higher
- growth rate versus strain without sulfotransferase (M9 without supplements): no difference in growth rate
